# Experimental data as given in patent US20210130452A1 (Merck KGaA, published 2021).
# Read-outs that look alike come from different tables or passages of the source.
# T1: human IL-17F (human, UniProt Q96PD4 31-163)
# T1 construct: also called hIL-17F; rhIL-17F
# T1 sequence: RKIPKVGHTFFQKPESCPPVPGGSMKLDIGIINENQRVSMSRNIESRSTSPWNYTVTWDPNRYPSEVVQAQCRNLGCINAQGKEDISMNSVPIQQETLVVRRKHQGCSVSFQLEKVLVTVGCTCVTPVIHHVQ
# T2: human IL-17F (human, UniProt Q96PD4 31-163, biotinylated with Sulfo-NHS-LC-Biotin in the AlphaScreen assays only)
# T2 construct: also called hIL-17F; recombinant human IL-17F
# T2 sequence: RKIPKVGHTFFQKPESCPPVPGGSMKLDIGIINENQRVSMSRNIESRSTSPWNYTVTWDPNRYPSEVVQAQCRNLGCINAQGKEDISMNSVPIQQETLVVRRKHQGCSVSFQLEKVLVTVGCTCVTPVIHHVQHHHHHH
# T3: human IL-17F (human, UniProt Q96PD4 31-163)
# T3 construct: GenBank AF384857, expressed in Hek293 as 6-His C-terminal tagged protein; also called hIL-17F; IL-17F-6HIS
# T3 sequence: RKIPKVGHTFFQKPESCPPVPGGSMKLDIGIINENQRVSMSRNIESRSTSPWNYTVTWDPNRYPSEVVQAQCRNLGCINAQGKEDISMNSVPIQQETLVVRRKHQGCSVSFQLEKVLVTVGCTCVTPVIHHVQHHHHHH
# T4: human IL-17F (human, UniProt Q96PD4 31-163)
# T4 construct: made in Hek293 cells (GenBank AF384857); also called hIL-17F; hIL17F
# T4 sequence: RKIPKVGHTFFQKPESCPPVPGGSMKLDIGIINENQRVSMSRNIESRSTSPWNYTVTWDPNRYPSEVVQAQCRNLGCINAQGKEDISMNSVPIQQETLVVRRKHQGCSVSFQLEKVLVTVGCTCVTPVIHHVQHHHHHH
# B1: 13B03 Fc fusion (Fc fusion)
# chain: EVQLVESGGGSVQAGDSLRLSCAASGRANSINWFGWFRQTPGKEREFVAGIRWSDAYTEYANSVKGRFTISRDNAKNTVDLQMDSLKPEDTAVYYCVLDLSTVRYWGQGTQVTVSS
# notes: also called 13B03 tested as Fc fusion; not shown: hinge and Fc
# B2: 01D06 (VHH)
# VHH: EVQLVESGGGLVQAGGSLRLSCAADGRTFSTYGMTWFRQVPGKEREFVAHIPRSTYSPYYANSVKGRFTIARDDAKSTVYLQMNSLKPEDTAVYYCAVFTGGTYYVPTAYDYWGQGTQVTVSS
# notes: Class 2 Nanobody (anti-IL-17A and IL-17A/F); not shown: c-myc, His6 tag
# B3: 04A02 (VHH)
# VHH: EVQLVESGGGLVQPGGSLRLSCAASRNINIINYMAWYRQAPGNQRELVAAMTSDATTEYADSVKGRFTISRDIPENTVYLQMNSLKPEDTAVYYCNAKGIWDYLGRRDFGDYWGQGTQVTVSS
# notes: as for B2
# B4: 09D10 (VHH)
# VHH: EVQLVESGGGLVQAGGSLSLSCAASGSVFRIDVMRWHRQAPGKQREFLASIASGGTTNYADSVKGRFTISRDNAKNTVYLQMNSLKPEDTAVYYCGANAESGPYTYWGLGTQVTVSS
# notes: as for B2
# B5: SH-Fc-(GS)2-13E02 (Fc fusion, not shown: a dimerising Fc or GST; small tags and cut ends)
# chain: EVQLVESGGGLVQAGGSLRLSCAASGRTYDAMGWLRQAPGKEREFVAAISGSGDDTYYADSVKGRFTISKDNAGITMYLQMNSLKPEDTAVYYCATRRGLYYVWDSNDYENWGQGTQVTVSS
# notes: also called MSB0010619; SH-(GS)2-Fc-13E02
# B6: 13E02 Fc fusion (Fc fusion)
# chain: EVQLVESGGGLVQAGGSLRLSCAASGRTYDAMGWLRQAPGKEREFVAAISGSGDDTYYADSVKGRFTISKDNAGITMYLQMNSLKPEDTAVYYCATRRGLYYVWDSNDYENWGQGTQVTVSS
# notes: also called 13E02 tested as Fc fusion; not shown: hinge and Fc
# B7: IL17MS3061 (VHH)
# VHH: DVQLVESGGGLVQPGGSLRLSCAASGTIVNIHVMGWYRQAPGKQRELVALIFSGGSADYADSVKGRFTISRDNSKNTVYLQMNSLRPEDTAVYYCAAEIGYYSGGTYYSSEAHWGQGTLVTVSS
# notes: variant of IL17MS04G01; Kabat numbering
# B8: IL17MS3040 (VHH)
# VHH: EVQLVESGGGLVQAGGSLRLSCAASGRTFSSYVVGWFRQAPGKEREFIGAISGSGGSIYYAVSEKDRFTISRDNGKNTLYLQMSSLKAEDTAVYYCTADQEFGYLRFGRSEYWGQGTQVTVSS
# B9: IL17MS3042 (VHH)
# VHH: EVQLVESGGGLVQAGGSLRLSCAASGRTFSSYVVGWFRQAPGKEREFIGAISGSGDTIYYAVSEKDRFTISRDNGKNTLYLQMSSLKAEDTAVYYCTADQEFGYLRFGRSEYWGQGTQVTVSS
# B10: IL17MS3041 (VHH)
# VHH: EVQLVESGGGLVQAGGSLRLSCAASGRTFSSYVVGWFRQAPGKEREFIGAISGSGESIYYAVSEKDRFTISRDNGKNTLYLQMSSLKAEDTAVYYCTADQEFGYLRFGRSEYWGQGTQVTVSS
# Experiments:
# [1] = molecular target: T1, human IL-17F; assay: method not given
# [2] = molecular target: T5, human IL-17A (human, UniProt Q16552 24-155, biotinylated with Sulfo-NHS-LC-Biotin in the AlphaScreen assays only); assay: AlphaScreen competition, hIL-17A - IL-17RA-Fc;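 note: receptor Fc-fusion plus Acceptor and streptavidin Donor beads incubated with the mixture for 1 h at room temperature before reading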
# T5 construct: also called hIL-17A; recombinant human IL-17A
# Method: (§1) To this mixture, the IL-17RA or IL-17RC Fc-fusions, Acceptor beads and the streptavidin Donor beads were added and further incubated for 1 hour at RT.
# [3] = molecular target: T6, human IL-17A/F heterodimer (human, UniProt Q16552 24-155; Q96PD4 31-163, limits assumed, biotinylated with Sulfo-NHS-LC-Biotin in the AlphaScreen assays only); assay: SPR Biacore, hIL-17A/F on chip; periplasmic extract (*)
# T6 construct: also called hIL-17A/F
# Target sequence in this assay (Q16552 24-155 limits assumed, one chain of several): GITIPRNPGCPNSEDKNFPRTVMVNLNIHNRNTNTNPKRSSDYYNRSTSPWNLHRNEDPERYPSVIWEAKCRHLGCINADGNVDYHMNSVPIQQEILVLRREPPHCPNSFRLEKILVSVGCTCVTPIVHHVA
# Method: (§2) Off-rates of the periplasmic extracts containing anti-IL-17 Nanobodies were measured by Surface Plasmon Resonance (SPR) using a Biacore T100 instrument. […] Periplasmic extracts containing IL-17 neutralizing Nanobodies were injected for 2 minutes at a flow rate of 45 μl/min to allow binding to chip-bound antigen. Next, binding buffer without periplasmic extracts was sent over the chip at the same flow rate to allow spontaneous dissociation of bound Nanobody. From the sensorgrams obtained for the different periplasmic extracts koff-values (k₄) were calculated.
# [4] = molecular target: T5, human IL-17A; assay: SPR Biacore, hIL-17A on chip; periplasmic extract (*)
# [5] = molecular target: T6, human IL-17A/F heterodimer; assay: AlphaScreen competition, hIL-17A/F - IL-17RA-Fc
# Target sequence in this assay (Q16552 24-155 limits assumed, chain 1 of 2, one chain of several): as the sequence (Q16552 24-155 limits assumed, one chain of several) above
# Method: as §1
# [6] = molecular target: T5, human IL-17A; assay: AlphaScreen competition, hIL-17A - IL-17RC-Fc;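 note: Read-out after 1 h at room temperature with the receptor Fc-fusion, Acceptor beads and streptavidin-coated Donor beads present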
# Method: as §1
# [7] = molecular target: T5, human IL-17A; assay: cell-based or functional assay
# [8] = molecular target: T6, human IL-17A/F heterodimer; assay: AlphaScreen competition, hIL-17A/F - IL-17RC-Fc
# Target sequence in this assay (Q16552 24-155 limits assumed, chain 1 of 2, one chain of several): as the sequence (Q16552 24-155 limits assumed, one chain of several) above
# Method: as §1
# [9] = molecular target: T6, human IL-17A/F heterodimer; assay: cell-based or functional assay
# [10] = molecular target: T2, human IL-17F; assay: SPR Biacore, hIL-17F on chip; periplasmic extract (*); NB = no binding
# Method: as §2
# [11] = molecular target: T2, human IL-17F; assay: AlphaScreen competition, hIL-17F - IL-17RC-Fc
# Method: as §1
# [12] = molecular target: T7, human IL-17A (human, UniProt Q16552 24-155); assay: competition ELISA IL17A-RA
# T7 construct: secreted form (GenBank U32659) expressed in Hek293 with C-terminal 6-His; also called hIL-17A; IL-17A-6HIS
# T7 sequence (Q16552 other isoform, or with tags, fused parts or gaps): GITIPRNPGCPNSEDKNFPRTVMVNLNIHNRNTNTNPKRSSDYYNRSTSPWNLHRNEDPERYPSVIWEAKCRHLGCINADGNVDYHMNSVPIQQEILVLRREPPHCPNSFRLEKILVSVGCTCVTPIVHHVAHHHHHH
# Method: (§3) To this end, IL-17RA, respectively IL-17RC was coated at a concentration of 1 μg/ml in PBS.
# [13] = molecular target: T3, human IL-17F; assay: competition ELISA IL17F-RC
# Method: as §3
# [14] = molecular target: T7, human IL-17A; assay: cell-based or functional assay
# [15] = molecular target: T3, human IL-17F; assay: cell-based or functional assay
# [16] = molecular target: T8, Cynomolgus monkey IL-17A (Cynomolgus monkey, UniProt A0A2K5TTB0 24-155); assay: SPR (Biacore) off-rate
# T8 construct: also called cyno IL-17A; cIL-17A
# [17] = molecular target: T9, human IL-17A (human, UniProt Q16552 24-155); assay: SPR (Biacore) off-rate
# T9 construct: secreted form made in Hek293 cells (GenBank U32659); also called hIL-17A; hIL17A
# T9 sequence (Q16552 other isoform, or with tags, fused parts or gaps): as above
# [18] = molecular target: T10, human IL-17A/F heterodimer (human, UniProt Q16552 24-155; Q96PD4 31-163, limits assumed); assay: SPR (Biacore) off-rate
# T10 construct: bought, made in E. coli (R&D Systems 5194-IL/CF); also called hIL-17A/F; hIL17A/F
# Target sequence in this assay (Q16552 24-155 limits assumed, one chain of several): as the sequence (Q16552 24-155 limits assumed, one chain of several) above
# [19] = molecular target: T9, human IL-17A; assay: AlphaScreen IL-17A-IL-17RA (average)
# [20] = molecular target: T9, human IL-17A; assay: cell-based or functional assay; remark: listed apart in the source
# [21] = molecular target: T10, human IL-17A/F heterodimer; assay: cell-based or functional assay
# Target sequence in this assay (Q16552 24-155 limits assumed, one chain of several): as above
# [22] = molecular target: T4, human IL-17F; assay: AlphaScreen IL-17F-IL-17RC; vs IL17MS16A04
# [23] = molecular target: T4, human IL-17F; assay: SPR (Biacore) off-rate
# [24] = molecular target: T10, human IL-17A/F heterodimer; assay: SPR (Biacore) off-rate; remark: listed apart in the source
# Target sequence in this assay (Q16552 24-155 limits assumed, chain 1 of 2, one chain of several): as the sequence (Q16552 24-155 limits assumed, one chain of several) above
# T5 sequence (Q16552 other isoform, or with tags, fused parts or gaps): as the sequence (Q16552 other isoform, or with tags, fused parts or gaps) above
# T8 sequence (A0A2K5TTB0 entry or part of it): as the sequence (Q16552 24-155 limits assumed, one chain of several) above, with T3A, P8S, N34S, I77V, N78K, P104R counted along it
Binder,IC50 [2] [nM],koff [3] [s⁻¹],koff [4] [s⁻¹],IC50 [5] [nM],IC50 [6] [nM],"IL-17A-induced IL-6 production in HT-1080 cells, Emax [7] [%]","IL-17A-induced IL-6 production in HT-1080 cells, IC50 [7] [nM]",IC50 [8] [nM],"IL-17A/F-induced IL-6 production in HT-1080 cells, Emax [9] [%]","IL-17A/F-induced IL-6 production in HT-1080 cells, IC50 [9] [nM]",IC50 fold difference vs WT [22] [fold],koff [23] [s⁻¹],koff [24] [s⁻¹],further results
B1,–,–,–,–,–,–,–,–,–,–,–,–,–,fold lower affinity on IL-17F than on IL-17A [1]: ~10 fold
B2,0.618,0.0013,0.00097,0.401,1.52,98.3,42.8,0.198,79.5,51.1,–,–,–,binding result [10]: no binding
B3,0.399,0.011,0.0013,1.96,0.837,102,12.6,3.17,67.6,70.4,–,–,–,binding result [10]: no binding
B4,0.211,0.0017,0.00015,9.02,1.12,93.5,8.5,8.65,55,124,–,–,–,IC50 [11]: 69.4 nM
B5,–,–,–,–,–,–,–,–,–,–,–,–,–,"IC50 [12]: 0.112 nM; IC50 [13]: 0.267 nM; IC50, hIL-17A induced IL-6, HT-1080, without HSA [14]: 0.31 nM; IC50, hIL-17F induced IL-6, HT-1080, without HSA [15]: 4.9 nM"
B6,–,–,–,–,–,–,–,–,–,–,–,–,–,fold lower affinity on IL-17F than on IL-17A [1]: ~10 fold
B7,–,–,–,–,–,–,–,–,–,–,–,–,–,"koff [16]: 0.000181 s⁻¹; koff [17]: 0.000146 s⁻¹; koff [18]: 0.000195 s⁻¹; IC50 [19]: 0.027 nM; IC50 cell based assay hIL-17A (IL-6, HT-1080 cells) [20]: 0.94 nM; IC50 cell based assay hIL-17A/F (IL-6, HT-1080 cells) [21]: 8.15 nM"
B8,–,–,–,–,–,–,–,–,–,–,9.6,0.00148,0.00878,–
B9,–,–,–,–,–,–,–,–,–,–,8.6,0.00121,0.005,–
B10,–,–,–,–,–,–,–,–,–,–,2.2,0.000606,0.00427,–
